Measured values as given in patent US20210032313A1 (Daiichi Sankyo, published 2021).
Where a chain is given by its changes, count along the chain named.

T1: human KLK14 (human, UniProt Q9P0G3 25-251)
T1 sequence: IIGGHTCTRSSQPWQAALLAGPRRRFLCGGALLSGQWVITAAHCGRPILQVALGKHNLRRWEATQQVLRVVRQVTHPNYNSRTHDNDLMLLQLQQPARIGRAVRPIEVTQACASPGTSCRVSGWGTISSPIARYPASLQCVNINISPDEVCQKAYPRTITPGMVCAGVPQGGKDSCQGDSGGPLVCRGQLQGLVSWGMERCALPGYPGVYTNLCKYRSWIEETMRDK

T2: human KLK5 (human, UniProt Q9Y337 67-293)
T2 sequence: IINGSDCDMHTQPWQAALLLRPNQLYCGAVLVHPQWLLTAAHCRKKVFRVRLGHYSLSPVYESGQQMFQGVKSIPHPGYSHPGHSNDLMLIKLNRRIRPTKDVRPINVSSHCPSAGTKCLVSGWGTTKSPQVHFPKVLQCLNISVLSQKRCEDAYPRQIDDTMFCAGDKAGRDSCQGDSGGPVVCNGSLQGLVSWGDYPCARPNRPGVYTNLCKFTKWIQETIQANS

T3: mouse KLK5 (mouse)
T3 chain: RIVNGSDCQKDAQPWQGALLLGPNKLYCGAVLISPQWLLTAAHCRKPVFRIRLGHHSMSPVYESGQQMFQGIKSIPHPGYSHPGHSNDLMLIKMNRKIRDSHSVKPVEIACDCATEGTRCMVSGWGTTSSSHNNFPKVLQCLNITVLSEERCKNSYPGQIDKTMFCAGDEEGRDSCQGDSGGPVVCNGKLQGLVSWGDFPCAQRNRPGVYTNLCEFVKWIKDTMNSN

T4: mouse KLK14 (mouse, UniProt Q8CGR5 24-250)
T4 sequence: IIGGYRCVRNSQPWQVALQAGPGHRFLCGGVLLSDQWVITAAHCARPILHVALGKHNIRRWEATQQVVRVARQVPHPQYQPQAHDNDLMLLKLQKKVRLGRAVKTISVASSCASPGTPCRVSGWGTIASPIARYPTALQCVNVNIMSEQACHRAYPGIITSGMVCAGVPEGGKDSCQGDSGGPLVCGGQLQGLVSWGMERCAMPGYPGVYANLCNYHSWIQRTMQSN

T5: KLK12 (human, UniProt Q9UKR0)
T5 construct: commercial enzyme (R&D Systems, 3095-SE); 0.1 µg/mL in the assay; substrate Boc-Val-Pro-Arg-AMC 100 µM; also called Human KLK12; hKLK12
T5 sequence (protease, looked up): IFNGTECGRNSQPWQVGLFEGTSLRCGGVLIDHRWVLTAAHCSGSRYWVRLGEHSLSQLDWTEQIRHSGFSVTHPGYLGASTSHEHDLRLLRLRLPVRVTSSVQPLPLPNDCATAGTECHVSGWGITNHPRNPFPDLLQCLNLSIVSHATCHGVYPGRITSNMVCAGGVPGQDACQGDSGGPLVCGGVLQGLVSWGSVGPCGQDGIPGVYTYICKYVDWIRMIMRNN

B1: KLK5 inhibitory peptide K51090 (peptide)
chain: GPQFGLFSKYRTPNCDEIGKYGCGRSYDPVCGSDMSTYANECTLCMKIREGGHNIKIIRNGPCGG
notes: SPINK2 mutant peptide made in E. coli
B2: KLK5 inhibitory peptide K50055 (peptide)
chain: B1 chain with D16A, E17N, I18T, G19M, Y21Q, G22D, G24T, S26E
notes: as for B1
B3: KLK5/KLK7 inhibitory peptide K50031 (peptide)
chain: B1 chain with D16G, I18Y, G19K, K20G, Y21R, G24Y, R25Y, S26H
notes: as for B1
B4: KLK5 inhibitory peptide K50098 (peptide)
chain: GPQFGLFSKYRTPNCTSQTLGSCSREYDPVCGSDMSTYANECTLCMKIREGGHNIKIIRNGPCGG
notes: as for B1
B5: KLK5 inhibitory peptide K51072 (peptide)
chain: GPQFGLFSKYRTPNCQEDMTEYCARDFDPVCGSDMSTYANECTLCMKIREGGHNIKIIRNGPCGG
notes: as for B1
B6: KLK5/KLK7 inhibitory peptide K51028 (peptide)
chain: GPQFGLFSKYRTPNCYQYRSKGCTHEYDPVCGSDMSTYANECTLCMKIREGGHNIKIIRNGPCGG
notes: as for B1
B7: KLK5/KLK7 inhibitory peptide K51005 (peptide)
chain: B6 chain with Y16M, Y18H, R19A, S20R, K21Q, T24H, H25Y, E26D
notes: as for B1
B8: KLK5 inhibitory peptide K50016 (peptide)
chain: B4 chain with T16S, S17Q, Q18W, T19Q, L20Y, G21S, S24D, E26V
notes: as for B1
B9: KLK5 inhibitory peptide K50032 (peptide)
chain: B4 chain with T16L, S17N, Q18W, L20D, G21H, S22Q, S24E, E26D
notes: as for B1

target: T1, human KLK14; assay: cell-based or functional assay

| IC50(nM) for hKLK14 | Binder |
| --- | --- |
| > 1000 nM | B1 |
| > 1000 nM | B2 |
| > 1000 nM | B3 |
| 268 nM | B4 |
| 434 nM | B5 |

target: T2, human KLK5; assay: cell-based or functional assay

| IC50(nM) for hKLK5 | Binder |
| --- | --- |
| 4.5 nM | B1 |
| 6.1 nM | B6 |
| 6.7 nM | B2 |
| 5.4 nM | B3 |
| 5.8 nM | B7 |
| 8.3 nM | B4 |
| 6.9 nM | B8 |
| 7.1 nM | B9 |
| 7 nM | B5 |

target: human KLK7 (human, UniProt P49862 30-253); assay: cell-based or functional assay
Sequence (P49862 30-253): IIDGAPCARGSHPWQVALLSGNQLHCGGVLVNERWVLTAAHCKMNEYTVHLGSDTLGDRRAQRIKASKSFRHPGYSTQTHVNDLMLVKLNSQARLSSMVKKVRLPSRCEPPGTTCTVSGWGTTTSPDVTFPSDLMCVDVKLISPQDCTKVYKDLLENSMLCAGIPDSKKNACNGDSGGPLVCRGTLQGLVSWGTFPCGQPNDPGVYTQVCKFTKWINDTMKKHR

| IC50(nM) for hKLK7 | Binder |
| --- | --- |
| > 1000 nM | B1 |
| 249 nM | B6 |
| 13 nM | B3 |
| 17 nM | B7 |

target: T6, KLK4 (human, UniProt Q9Y5K2); assay: fluorogenic peptide substrate cleavage, 1 µM inhibitor
T6 construct: commercial enzyme (R&D Systems, 1719-SE); 1 µg/mL in the assay; substrate Boc-Val-Pro-Arg-AMC 100 µM; also called Human KLK4; hKLK4
T6 sequence (Q9Y5K2 31-254 limits assumed): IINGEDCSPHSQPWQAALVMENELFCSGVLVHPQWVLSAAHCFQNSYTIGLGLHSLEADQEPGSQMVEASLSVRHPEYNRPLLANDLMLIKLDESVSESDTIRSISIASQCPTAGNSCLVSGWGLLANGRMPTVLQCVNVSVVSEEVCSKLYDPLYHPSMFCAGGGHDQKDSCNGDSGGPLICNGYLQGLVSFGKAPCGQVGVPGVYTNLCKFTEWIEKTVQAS
Method: FIG. 3F includes graphs to evaluate the cross-reactivity of each inhibitory peptide with proteases, using the degradation of a peptide substrate as an index. For evaluating the Human KLK1 inhibitory activity, hKLK1 (R&D Systems, Inc., 2337-SE) with a final concentration of 0.1 μg/mL and a substrate peptide Pro-Phe-Arg-MCA (PEPTIDE […], INC., 3096-v) with a final concentration of 100 μM were used. For evaluating the Human KLK2 inhibitory activity, hKLK2 (R&D Systems, Inc., 4104-SE) with a final concentration of 2 μg/mL and a substrate peptide Pro-Phe-Arg-MCA (PEPTIDE […], INC., 3096-v) with a final concentration of 100 μM were used. For evaluating the Human KLK4 inhibitory activity, hKLK4 (R&D Systems, Inc., 1719-SE) with a final concentration of 1 μg/mL and a substrate peptide Boc-Val-Pro-Arg-AMC (R&D Systems, Inc., ES011) with a final concentration of 100 μM were used.
(§1) The specificities for other proteases were evaluated using the degradation of a substrate peptide as an index. As in the method described in (3-1), 25 μL each of a protease and a sample diluted with an assay buffer were mixed (to a final concentration of sample of 1 μM), followed by a reaction at 37° C. for 20 minutes. Thereafter, 50 μL of a substrate diluted with an assay buffer was added thereto, and the fluorescence signal was measured using Enspire (PerkinElmer). An assay buffer (50 mM Tris, 150 mM NaCl, pH 8.0) was used for the evaluation of the protease activity, and a PROTEOSAVE® SS96F black plate (Sumitomo Bakelite Co., Ltd.) was used for the reaction and the measurement. The combinations of the protease and the substrate used for the evaluation of the specificity were as follows.

| binding result | Binder |
| --- | --- |
| binds | B1 |
| binds | B2 |
| binds | B7 |
| binds | B4 |
| binds | B8 |
| binds | B5 |

target: bChymotrypsin; assay: as above
Method: FIG. 3A includes graphs to evaluate the cross-reactivity of each inhibitory peptide with proteases, using the degradation of a peptide substrate as an index. For evaluating the Bovine trypsin inhibitory activity, trypsin (Pierce, 20233) with a final concentration of 5 nM and a substrate peptide Boc-Val-Pro-Arg-AMC (R&D Systems, Inc., ES011) with a final concentration of 100 μM were used. For evaluating the Human trypsin inhibitory activity, trypsin (Sigma-Aldrich Co. LLC, T6424) with a final concentration of 1 nM and a substrate peptide Boc-Val-Pro-Arg-AMC (R&D Systems, Inc., ES011) with a final concentration of 100 μM were used. For evaluating the Bovine α-chymotrypsin inhibitory activity, chymotrypsin (Worthington Biochemical Corporation, LS001434) with a final concentration of 10 nM and a substrate peptide Suc-Leu-Leu-Val-Tyr-MCA (PEPTIDE […], INC., 3120-v) with a final concentration of 100 μM were used.
as §1

| binding result | Binder |
| --- | --- |
| binds | B3 |
| binds | B7 |

target: mouse KLK7 (mouse, UniProt Q91VE3 26-249); assay: cell-based or functional assay
Sequence (Q91VE3 26-249): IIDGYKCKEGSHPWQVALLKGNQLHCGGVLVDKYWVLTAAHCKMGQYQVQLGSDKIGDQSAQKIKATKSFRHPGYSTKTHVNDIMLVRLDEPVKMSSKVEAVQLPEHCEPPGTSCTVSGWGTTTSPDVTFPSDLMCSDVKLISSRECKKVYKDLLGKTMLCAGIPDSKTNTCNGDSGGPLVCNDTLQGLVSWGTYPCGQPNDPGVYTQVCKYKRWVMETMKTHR

| IC50(nM) for mKLK7 | Binder |
| --- | --- |
| 658 nM | B1 |
| 77 nM | B6 |
| > 1000 nM | B2 |
| 4 nM | B3 |
| 23 nM | B7 |
| > 1000 nM | B4 |
| > 1000 nM | B8 |
| > 1000 nM | B9 |
| 512 nM | B5 |

Target: T3, mouse KLK5
Assay: cell-based or functional assay

| IC50(nM) for mKLK5 | Binder |
| --- | --- |
| 2 nM | B1 |
| < 0.5 nM | B6 |
| < 0.5 nM | B2 |
| 40 nM | B3 |
| 48 nM | B7 |
| 14 nM | B4 |
| 15 nM | B8 |
| 127 nM | B9 |
| 2 nM | B5 |

target: T4, mouse KLK14; assay: cell-based or functional assay

| IC50(nM) for mKLK14 | Binder |
| --- | --- |
| > 1000 nM | B1 |
| > 1000 nM | B6 |
| > 1000 nM | B2 |
| 244 nM | B3 |
| 214 nM | B7 |
| 547 nM | B4 |
| > 1000 nM | B8 |
| > 1000 nM | B9 |
| > 1000 nM | B5 |

target: T5, KLK12; assay: fluorogenic peptide substrate cleavage, 1 µM inhibitor
Method: FIG. 3G includes graphs to evaluate the cross-reactivity of each inhibitory peptide with proteases, using the degradation of a peptide substrate as an index. For evaluating the Human KLK7 inhibitory activity, hKLK7 with a final concentration of 1 μg/mL and a substrate peptide Mca-Arg-Pro-Lys-Pro-Val-Glu-Nval-Trp-Arg-Lys (Dnp)-NH₂ (R&D Systems, Inc., ES002) with a final concentration of 20 μM were used. For evaluating the Human KLK8 inhibitory activity, hKLK8 (UniProt: 060259, prepared by the inventors) with a final concentration of 5 nM and a substrate peptide Boc-Val-Pro-Arg-AMC (R&D Systems, Inc., ES011) with a final concentration of 100 μM were used. For evaluating the Human KLK12 inhibitory activity, hKLK12 (R&D Systems, Inc., 3095-SE) with a final concentration of 0.1 μg/mL and a substrate peptide Boc-Val-Pro-Arg-AMC (R&D Systems, Inc., ES011) with a final concentration of 100 μM were used.
as §1

| binding result | Binder |
| --- | --- |
| binds | B2 |
| binds | B4 |
| binds | B9 |
| binds | B5 |

target: T2, human KLK5; assay: SPR, BIAcore T200; biotinylated KLK5 captured on chip, peptide as analyte; single cycle kinetics, 1:1 model
Method: In order to measure the binding affinity of the KLK5 inhibitory peptides, surface plasmon resonance analysis was conducted using BIAcore T 200 (GE healthcare). A complementary strand of DNA of a streptavidin conjugate was captured by hybridization on Sensor Chip CAP (GE healthcare) on which single-stranded DNA immobilized. Next, KLK5 biotinylated using EZ-Link NHS-PEG4-Biotin (Thermo Fisher Scientific) was captured at a flow rate of 10 μL/min to immobilize about 10 RU. Thereafter, the KLK5 inhibitory peptide, serially diluted 2-fold with HBS-EP (0.625 to 10 nM), was added thereto as an analyte at a flow rate of 30 μL/min. In the BIAcore T 200 Evaluation software (version 2.0), kon and koff were calculated by analysis using Single cycle kinetics in a simple one-to-one Langmuir binding model. The dissociation constant KD was calculated as a ratio of koff/kₒₙ. Further, multiple KLK5 inhibitory peptides were measured by regenerating Sensor Chip CAP using a Regeneration buffer attached to a Biotin CAPture Kit (GE healthcare) and repeatedly capturing biotinylated KLK5.

| Kd | koff | kon | Binder |
| --- | --- | --- | --- |
| 0.027 nM | 5.7e-05 s⁻¹ | 2.1e+06 M⁻¹ s⁻¹ | B1 |
| 0.014 nM | 2e-05 s⁻¹ | 1.5e+06 M⁻¹ s⁻¹ | B6 |
| 0.019 nM | 1.8e-05 s⁻¹ | 980000 M⁻¹ s⁻¹ | B2 |
| 0.061 nM | 5e-05 s⁻¹ | 820000 M⁻¹ s⁻¹ | B3 |
| 0.34 nM | 0.0012 s⁻¹ | 3.5e+06 M⁻¹ s⁻¹ | B7 |
| 0.018 nM | 1.8e-05 s⁻¹ | 1e+06 M⁻¹ s⁻¹ | B4 |
| 0.042 nM | 0.00029 s⁻¹ | 7e+06 M⁻¹ s⁻¹ | B8 |
| 0.13 nM | 0.00027 s⁻¹ | 2e+06 M⁻¹ s⁻¹ | B9 |
| 0.026 nM | 2.2e-05 s⁻¹ | 840000 M⁻¹ s⁻¹ | B5 |
